{
  "source": "patent US6440409",
  "proteins": {"B1": {"name": "diphtheria toxin F2 fragment (protein)", "chain": "GADDVVDSSKSFVMENFSSYHGTKPGYVDSIQKGIQKPKSGTQGNYDDDWKGFYSTDNKYDAAGYSVDNENPLSGKAGGVVKVTYPGLTKVLALKVDNAETIKKELGLSLTEPLMEQVGTEEFIKRFGDGASRVVLSLPFAEGSSSVEYINNWEQAKALSVELEINFETRGKRGQDAMYEYMAQACAGNRVRR"}},
  "key": {"[1]": {"biological_target": "T1, translation elongation factor 2 (EF-2), toxin-sensitive form with diphthamide", "T1 chain": "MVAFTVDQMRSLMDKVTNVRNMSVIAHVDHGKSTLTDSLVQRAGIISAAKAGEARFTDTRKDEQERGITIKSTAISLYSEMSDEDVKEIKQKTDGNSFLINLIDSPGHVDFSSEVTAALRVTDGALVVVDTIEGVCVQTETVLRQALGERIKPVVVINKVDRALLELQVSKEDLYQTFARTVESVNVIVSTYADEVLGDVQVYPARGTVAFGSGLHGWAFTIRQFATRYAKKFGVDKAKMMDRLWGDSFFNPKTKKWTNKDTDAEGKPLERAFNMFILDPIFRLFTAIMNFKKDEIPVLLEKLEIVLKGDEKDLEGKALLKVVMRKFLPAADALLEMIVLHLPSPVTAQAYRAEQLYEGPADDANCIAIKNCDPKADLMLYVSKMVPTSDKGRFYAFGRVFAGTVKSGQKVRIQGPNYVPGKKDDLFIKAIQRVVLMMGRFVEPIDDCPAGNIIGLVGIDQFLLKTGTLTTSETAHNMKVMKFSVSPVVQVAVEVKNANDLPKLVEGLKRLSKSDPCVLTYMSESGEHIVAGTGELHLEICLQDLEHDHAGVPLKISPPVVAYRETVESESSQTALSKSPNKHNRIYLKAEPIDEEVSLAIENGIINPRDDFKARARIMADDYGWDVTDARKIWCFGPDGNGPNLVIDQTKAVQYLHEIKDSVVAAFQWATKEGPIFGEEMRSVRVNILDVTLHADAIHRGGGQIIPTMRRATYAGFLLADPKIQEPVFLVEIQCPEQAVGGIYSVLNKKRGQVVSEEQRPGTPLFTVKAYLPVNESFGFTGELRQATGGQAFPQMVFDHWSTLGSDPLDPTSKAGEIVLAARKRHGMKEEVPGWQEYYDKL"}, "[2]": {"biological_target": "T2, translation elongation factor 2 (EF-2), toxin-resistant form without diphthamide (dph1::TRP1 strains)", "T2 chain": "T1 chain"}},
  "data": [
    {"protein": "B1", "values": [
      {"measurement": "viable diploids after mating of the killer strain (TMY401 with pTM147) with the target strain (TMY407 with pRS426), selected on SC-Ura, His", "setting": "[1]", "result": "very few viable diploids appear at the intersection of the killer and target strains"},
      {"measurement": "viable diploids after mating of the killer strain (TMY401 with pTM147) with the diphtheria toxin-resistant strain TMY403 (dph1::TRP1), selected on SC-Ura, His", "setting": "[2]", "result": "healthy diploids are readily obtained"}
    ]}
  ]
}
